Source: patent publication US20120276611A1 (GRIFOLS THERAPEUTICS, published 2012)

T1: α2-antiplasmin (UniProt P08697 40-491, limits assumed)
T1 construct: also called α2-AP
T1 sequence (looked up): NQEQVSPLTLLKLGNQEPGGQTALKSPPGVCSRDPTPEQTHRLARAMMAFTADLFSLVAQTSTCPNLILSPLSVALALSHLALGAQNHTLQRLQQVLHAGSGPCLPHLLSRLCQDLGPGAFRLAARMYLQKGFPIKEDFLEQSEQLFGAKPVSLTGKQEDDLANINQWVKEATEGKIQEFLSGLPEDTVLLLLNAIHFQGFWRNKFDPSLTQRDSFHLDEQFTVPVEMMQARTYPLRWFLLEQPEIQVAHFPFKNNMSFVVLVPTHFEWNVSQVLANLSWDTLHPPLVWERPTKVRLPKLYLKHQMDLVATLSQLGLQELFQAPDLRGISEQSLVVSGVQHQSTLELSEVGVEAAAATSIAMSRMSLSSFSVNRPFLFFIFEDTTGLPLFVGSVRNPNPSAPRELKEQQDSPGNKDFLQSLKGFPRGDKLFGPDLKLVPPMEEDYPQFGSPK


Assays:
α2-antiplasmin [1] = biological target: T1, α2-antiplasmin; assay: inhibition rates by α2-antiplasmin compared (residual S-2251 activity)
α2-antiplasmin [2] = biological target: T1, α2-antiplasmin; assay: enzyme mixed with α2-antiplasmin, residual S-2251 activity at time points (Wiman and Collen); 22° C., PBS pH 7.4
Experimental: TABLE 3 Inhibition rates for various plasmin species and inhibitors were determined at 22° C. in PBS buffer, pH 7.4.

fold faster inhibition than micro-plasmin or mini-plasmin (α2-antiplasmin [1])	inhibition rate (second-order rate constant) (α2-antiplasmin [2])	Binder
40 fold	1.8e+07 M⁻¹ s⁻¹	(TAL6003)-plasmin (enzyme, also called recombinant (TAL6003)-plasmin) MRDVVLFEKKVYLSECKTGNGKNYRGTMSKTKNGITCQKWSSTSPHRPRFSPATHPSEGLEENYCRNPDNDPQGPWCYTTDPEKRYDYCDVPQCAAPSFDCGKPQVEPKKCPGRVVGGCVAHPHSWPWQVSLRTRFGMHFCGGTLISPEWVLTAAHCLEKSPRPSSYKVILGAHQEVNLEPHVQEIEVSRLFLEPTRKDIALLKLSSPAVITDKVIPACLPSPNYVVADRTECFITGWGETQGTFGAGLLKEAQLPVIENKVCNRYEFLNGRVQSTELCAGHLAGGTDSCQGDSGGPLVCFEKDKYILQGVTSWGLGCARPNKPGVYVRVSRFVTWIEGVMRNN
–	240000 M⁻¹ s⁻¹	mini-plasmin (enzyme, also called mini-plasmin (K5-SP)) VAPPPVVLLPDVETPSEEDCMFGNGKGYRGKRATTVTGTPCQDWAAQEPHRHSIFTPETNPRAGLEKNYCRNPDGDVGGPWCYTTNPRKLYDYCDVPQCAAPSFDCGKPQVEPKKCPGRVVGGCVAHPHSWPWQVSLRTRFGMHFCGGTLISPEWVLTAAHCLEKSPRPSSYKVILGAHQEVNLEPHVQEIEVSRLFLEPTRKDIALLKLSSPAVITDKVIPACLPSPNYVVADRTECFITGWGETQGTFGAGLLKEAQLPVIENKVCNRYEFLNGRVQSTELCAGHLAGGTDSCQGDSGGPLVCFEKDKYILQGVTSWGLGCARPNKPGVYVRVSRFVTWIEGVMRNN
–	180000 M⁻¹ s⁻¹	micro-plasmin (enzyme, UniProt P00747 562-810, looked up, domain: serine protease domain; also called micro-plasmin (lacking all five kringles)) APSFDCGKPQVEPKKCPGRVVGGCVAHPHSWPWQVSLRTRFGMHFCGGTLISPEWVLTAAHCLEKSPRPSSYKVILGAHQEVNLEPHVQEIEVSRLFLEPTRKDIALLKLSSPAVITDKVIPACLPSPNYVVADRTECFITGWGETQGTFGAGLLKEAQLPVIENKVCNRYEFLNGRVQSTELCAGHLAGGTDSCQGDSGGPLVCFEKDKYILQGVTSWGLGCARPNKPGVYVRVSRFVTWIEGVMRNN
